Test [1] deals with murine laminin G-like 5 domain of laminin-2 (mLG-5) (mouse) (UniProt Q60675). Nature of the test: SPR (Biacore) kinetics; mAb immobilized, mLG-5 in flow. (In SPR one partner is held on a chip, and binding of the other changes the refractive index at the surface.)
Test [2] concerns the target T1, human laminin G-like 4 and 5 domains of laminin-2 (hLG-4/5), soluble (human, UniProt P24043 2729-3122, biotinylated in the ELISA of Example 6).
T1 construct: range 2729-3122; also called human LG-4/5; hLG4/LG5; not shown: Avi tag and HPC4 tag left after TEV cleavage of the N-terminal mIgG2a fusion partner
T1 sequence (looked up): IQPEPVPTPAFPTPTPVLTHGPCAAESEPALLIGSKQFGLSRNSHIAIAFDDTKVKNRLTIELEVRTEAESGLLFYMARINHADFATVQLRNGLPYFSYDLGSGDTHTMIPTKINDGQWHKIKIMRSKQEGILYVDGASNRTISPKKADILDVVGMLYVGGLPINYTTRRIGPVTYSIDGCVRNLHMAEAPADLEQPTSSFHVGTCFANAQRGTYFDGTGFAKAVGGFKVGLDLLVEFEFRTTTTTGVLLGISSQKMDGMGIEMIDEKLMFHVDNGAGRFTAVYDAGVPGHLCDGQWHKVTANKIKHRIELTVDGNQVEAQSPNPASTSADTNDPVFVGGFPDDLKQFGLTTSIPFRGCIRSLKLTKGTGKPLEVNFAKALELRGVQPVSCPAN
Nature of the test: SPR (Biacore) kinetics, antibody as ligand on the chip, hLG4/5 monomer in flow, fit 1:1 Binding.

The target of test [3] is T2, murine laminin G-like 4 and 5 domains of laminin-2 (mLG-4/5), soluble (mouse, UniProt Q60675 2725-3118).
T2 construct: range 2725-3118; also called murine LG-4/5; not shown: Avi tag and HPC4 tag left after TEV cleavage of the N-terminal mIgG2a fusion partner
T2 sequence (looked up): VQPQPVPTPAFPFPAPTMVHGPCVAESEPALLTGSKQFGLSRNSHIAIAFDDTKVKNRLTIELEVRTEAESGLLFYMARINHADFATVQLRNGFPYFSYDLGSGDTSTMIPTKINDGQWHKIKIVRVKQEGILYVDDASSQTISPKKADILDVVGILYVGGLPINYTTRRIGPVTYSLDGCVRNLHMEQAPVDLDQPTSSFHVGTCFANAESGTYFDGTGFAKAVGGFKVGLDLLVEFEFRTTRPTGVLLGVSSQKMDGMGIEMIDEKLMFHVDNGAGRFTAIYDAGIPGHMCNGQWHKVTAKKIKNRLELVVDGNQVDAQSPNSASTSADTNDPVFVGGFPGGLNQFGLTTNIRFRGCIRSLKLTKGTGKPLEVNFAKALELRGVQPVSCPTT
Nature of the test: SPR (Biacore) kinetics, antibody as ligand on the chip, mLG4/5 monomer in flow, fit 1:1 Binding.

Test [4] concerns the target T3, human laminin G-like 5 domain of laminin-2 (hLG-5) (human, UniProt P24043 2936-3122, soluble biotinylated protein (Avi tag)).
T3 construct: The construct used for the crystal structure with C21 Fab is not described; the same entry is used; also called human LG-5; human LG5; not shown: N-terminal Avi and HPC4 tags
T3 sequence: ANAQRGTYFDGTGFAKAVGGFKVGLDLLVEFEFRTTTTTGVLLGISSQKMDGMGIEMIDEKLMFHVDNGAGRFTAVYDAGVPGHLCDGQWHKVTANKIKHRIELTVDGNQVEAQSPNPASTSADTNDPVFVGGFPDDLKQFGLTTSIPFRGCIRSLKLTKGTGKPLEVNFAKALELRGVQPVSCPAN
Kind of test: SPR (Biacore) kinetics; mAb immobilized, hLG-5 in flow.

Test [5] has as its target T4, human beta-dystroglycan extracellular domain (soluble) (human, UniProt Q14118 654-749).
T4 construct: extracellular domain; The expression construct of soluble human beta-DG is not described (only the mouse one); also called hBeta-DG; hbeta-DG
T4 sequence (looked up): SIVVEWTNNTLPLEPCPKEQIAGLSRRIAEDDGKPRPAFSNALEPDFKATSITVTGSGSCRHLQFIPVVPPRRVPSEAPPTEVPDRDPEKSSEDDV
Kind of test: sequential SPR (Biacore): antibody immobilised on a CM5 chip, human LG-4/5 and then human beta-DG flowed over. As for the experimental part: Parental monoclonal antibodies (AS19, C3 and C21) and three bispecific antibodies (AS19×C3 and AS30×C3 in TBTI, and AS30×C3 in CODVIg) were each immobilized onto individual CM5 Series S Biacore chips (GE Healthcare). Human or murine LG-4/5, followed in sequence by human or murine beta-DG, was flown over each chip and binding was assessed.
Parental mAbs to LG-4/5 or beta-DG and biAbs of anti-LG4/5 and beta-DG were captured onto biacore chips, and then flowed with human LG4/5 and human beta-DG sequentially to determine their concurrent bindings to both antigens. […] In contrast, parental monoclonal antibodies were only able to bind to one target, either LG-4/5 (C3 and C21 in FIGS. 6A & 6B) or beta-DG (AS19 in FIGS. 6A & 6B).

Test [6] concerns the target T5, human beta-DG fused to the human hIgG1 Fc antibody region (hbeta-DG-hFc) (human, UniProt Q14118 654-749, limits assumed).
T5 construct: not shown: human IgG1 Fc region
T5 sequence (looked up): T4 sequence (looked up)
Kind of test: double deck sandwich ELISA: plate coated with human LG-4/5, then mAb, then hbeta-DG-hFc, HRP anti-hFc. As for the experimental part:
(§1) 96-well plates were coated with 50 ng human LG-4/5 and blocked with 5% fetal bovine serum in PBS. Each well was incubated with 1 μg of the generated bispecific antibodies (murine IgG backbone). After 2 hours, wells were washed with PBS and re-incubated with 16 ng to 1 μg per well of human beta-DG fused to the human hIgG1 Fc antibody region (hbeta-DG-hFc). After 2 hours, wells were washed with PBS, incubated with a HRP conjugated anti-hFc secondary antibody for 45 minutes, washed again with PBS, and developed for colorimetric measuring.
(§2) Colorimetric signals could be detected only when hLG-4/5 and hbeta-DG-hFc were both added in the assay (FIG. 7). No signal was detected when parental monoclonal antibodies were used or when hbeta-DG-hFc was omitted. Three bispecific antibodies (biAbs), T1T2, T5T6, and C5C6, had the anticipated signal indicating simultaneous binding to both targets. The parental anti-LG4/5 or anti-beta-DG mAbs, or biAbs without beta-DG-hFc in the 2nd step were all negative in this assay.
(An ELISA detects its analyte on a solid surface through an enzyme-linked reagent.)

In test [7] the target is T1, human laminin G-like 4 and 5 domains of …. Nature of the test: SPR (Biacore) kinetics, antibody as ligand on the chip, hLG4/5 monomer in flow, fit 1:1 Binding. This is another data set of the same source.
The target in test [8] is T2, murine laminin G-like 4 and 5 domains …. Kind of test: SPR (Biacore) kinetics, antibody as ligand on the chip, mLG4/5 monomer in flow, fit 1:1 Binding. This is another data set of the same source.
Test [9] addresses T5, human beta-DG fused to the human hIgG1 …. Kind of test: double deck sandwich ELISA: plate coated with human LG-4/5, then biAb, then hbeta-DG-hFc, HRP anti-hFc; a signal needs both bindings at once. The procedure:
as §1, §2

The target of test [10] is T4, human beta-dystroglycan extracellular …. Kind of test: SPR (Biacore) kinetics; mAb immobilized, hBeta-DG in flow.
For test [11], the target named is T6, murine beta-dystroglycan extracellular domain (mbeta-DG ECD), HPC4 tagged (mouse, UniProt Q62165 652-746).
T6 construct: range 652-746; Made in E. coli as MBP fusion; MBP cleaved off with TEV protease; also called mbeta-DG-HPC4; murine beta-DG; not shown: C-terminal HPC4 tag
T6 sequence (looked up): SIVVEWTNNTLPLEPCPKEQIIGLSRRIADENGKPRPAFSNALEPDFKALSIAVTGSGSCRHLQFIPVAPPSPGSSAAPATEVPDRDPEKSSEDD
Kind of test: SPR (Biacore) kinetics; mAb immobilized, mBeta-DG in flow.

These results are taken from patent US20180237511A1 (Sanofi, published 2018).

Where a chain is given by its changes, count along the chain named. Where two headings read alike, the source gives them in different places.

B1: anti-laminin-2 antibody derived from hybridoma clone C21 (antibody, V domains shown)
VH: EVMLVESGGGLVKPGGSLKLSCAASGFTFSSYTMSWVRQTPEKRLEWVATISSGGDNTYYPDSVKGRFTISRDNAKNNLYLQMSSLRSEDTALYYCARFDYGSSLDCWGQGTTLTVSS
VL: DIVLTQSPATLSVTPGDSVSLSCRASQSISNYLHWYQQKSHESPRLLIKYASQSISGIPSRFSGSGSGTDFTLSINSVETEDFGMYFCQQSKSWPRTFGGGTELEIK
notes: Hybridoma monoclonal antibody (detected with anti-mouse IgG); also called anti-laminin-2(C21)
In the case of B1, the Kd (as a rule, the equilibrium constant for the complex coming apart) was 3.04 nM in [1], 2.8 nM in [2], 3.04 nM in test [3] and 2.8 nM in test [4]. The koff (in general, the rate constant with which the complex falls apart) in [1] was 0.00253 s⁻¹; in test [2] it was 0.00131 s⁻¹; in test [3], 0.00253 s⁻¹; in test [4] it was 0.00131 s⁻¹. The kon (commonly a measure of how fast the partners come together) in [1] turned out to be 813000 M⁻¹ s⁻¹; in test [2] it was 467000 M⁻¹ s⁻¹; in [3] it was 813000 M⁻¹ s⁻¹; in [4], 467000 M⁻¹ s⁻¹. In addition, the binding result is reported as “no binding” in [5] and “no binding (tested: 1000 ng/ml)” in [6].

B2: anti-laminin-2 antibody derived from hybridoma clone C3 (antibody, V domains shown)
VH: B1 VH with E1D, G10D, T50S, D56G, C107S
VL: B1 VL with Y32N, S93N, E103K
notes: Hybridoma monoclonal antibody (detected with anti-mouse IgG); also called C03; anti-laminin-2(C3)
As for B2, the koff in [7] was 0.0013 s⁻¹; in test [1], 0.00429 s⁻¹; in [4], 0.0013 s⁻¹; in test [8], 0.00429 s⁻¹. The kon in test [7] was found to be 488000 M⁻¹ s⁻¹; in test [1], 519000 M⁻¹ s⁻¹; in test [4] it was 488000 M⁻¹ s⁻¹; in test [8] it was 519000 M⁻¹ s⁻¹. For the same molecule, the Kd in test [1] came to 8.27 nM; in [4], 2.66 nM. Further, the binding result was “no binding” in [5] and “no binding (tested: 1000 ng/ml)” in test [6].

B3: bispecific antibody T1T2: anti-beta-DG(AS19) x anti-laminin-2(C3), TBTI with (GGGGS)2 linker (bispecific antibody)
heavy: QVQLQQSGPELVKPGASVKMSCKASGFTFTDSVISWVKQRTGQGLEWIGEIYPGSGSIYYNEKFKGKATLTADKSSNTAYMQLRSLTSEDSAVYFCAMRRSYWGQGTLVTVSAGGGGSGGGGSDVMLVESGGDLVKPGGSLKLSCAASGFTFSSYTMSWVRQTPEKRLEWVASISSGGGNTYYPDSVKGRFTISRDNAKNNLYLQMSSLRSEDTALYYCARFDYGSSLDSWGQGTTLTVSS
light: DVLMTQTPLSLPVSLGDQASISCRSSQSIVHSNGNTYLEWYLQKPGQSPKLLIYKVSNRFSGVPDRFSGSGSGTDFTLKISRVEAEDLGVYYCFQGSHVPLTFGAGTKLELKGGGGSGGGGSDIVLTQSPATLSVTPGDSVSLSCRASQSISNNLHWYQQKSHESPRLLIKYASQSISGIPSRFSGSGSGTDFTLSINSVETEDFGMYFCQQSKNWPRTFGGGTKLEIK
notes: also called AS19xC3 in TBTI; biAb (AS19xC3); not shown: IgG1 heavy chain constant region: murine IgG1 (GenBank AAA75163.1) or human IgG1 (Genbank Q569F4); murine IgG backbone i; kappa light chain constant region: murine kappa chain (Genbank BAB33404) or human kappa chain (Genbank Q502W4)
Consider B3, for which the binding result in test [5] and in test [9] was “binds” in each case.

B4: anti-beta-DG antibody derived from phage display clone B04 (antibody, V domains shown)
VH: QVQLQQSGGGLVQPGGSLRLSCAASGFTFSSYAMSWVRQAPGKGLEWVSAISGSGGSTYYADSVKGRFTVSRDNSKNTLYLQMNSLRAEDTAVYYCARLGYCSSTSCYLSAFDIWGQGTMVTVSS
VL: EIVLTQSPSTLSASVGDRVTITCRASQSISSWLAWYQQKPGKAPKLLIYDASSLESGVPSRFSGSGSGTEFTLTISSLQPDDFATYYCQQYNSYPLTFGGGTKVEIK
notes: Phage display clone
In the case of B4, in [10], the off-rate (koff) stood at 0.0016 s⁻¹ and the kon was 62000 M⁻¹ s⁻¹. In test [11], this molecule had a dissociation constant (Kd) of 25.7 nM, a koff of 0.0016 s⁻¹ and an on-rate constant (kon) of 62000 M⁻¹ s⁻¹.
